How the values were obtained:
[1] = biological target: purified human H3 recombinant protein (NEB), P20929
[2] = biological target: T1, biotinylated H4-derived unphosphorylated peptide TVTAMDVVYALKRQGRT
T1 chain: TVTAMDVVYALKRQGRT

[3] = biological target: purified human H4 recombinant protein (NEB), P62805

Protein	in vitro kinase reaction, immunoblot with pTyr99-H3 antibody [1]	in vitro kinase assay on plate-bound peptide, ELISA with pY88-H4 antibodies [2]	in vitro kinase assay, immunoblot with pTyr51-H4 antibody [3]
purified Ack1 (protein) MQPEEGTGWLLELLSEVQLQQYFLRLRDDLNVTRLSHFEYVKNEDLEKIGMGRPGQRRLWEAVKRRKALCKRKSWMSKVFSGKRLEAEFPPHHSQSTFRKTSPAPGGPAGEGPLQSLTCLIGEKDLRLLEKLGDGSFGVVRRGEWDAPSGKTVSVAVKCLKPDVLSQPEAMDDFIREVNAMHSLDHRNLIRLYGVVLTPPMKMVTELAPLGSLLDRLRKHQGHFLLGTLSRYAVQVAEGMGYLESKRFIHRDLAARNLLLATRDLVKIGDFGLMRALPQNDDHYVMQEHRKVPFAWCAPESLKTRTFSHASDTWMFGVTLWEMFTYGQEPWIGLNGSQILHKIDKEGERLPRPEDCPQDIYNVMVQCWAHKPEDRPTFVALRDFLLEAQPTDMRALQDFEEPDKLHIQMNDVITVIEGRAENYWWRGQNTRTLCVGPFPRNVVTSVAGLSAQDISQPLQNSFIHTGHGDSDPRHCWGFPDRIDELYLGNPMDPPDLLSVELSTSRPPQHLGGVKKPTYDPVSEDQDPLSSDFKRLGLRKPGLPRGLWLAKPSARVPGTKASRGSGAEVTLIDFGEEPVVPALRPCAPSLAQLAMDACSLLDETPPQSPTRALPRPLHPTPVVDWDARPLPPPPAYDDVAQDEDDFEICSINSTLVGAGVPAGPSQGQTNYAFVPEQARPPPPLEDNLFLPPQGGGKPPSSAQTAEIFQALQQECMRQLQAPAGSPAPSPSPGGDDKPQVPPRVPIPPRPTRPHVQLSPAPPGEEETSQWPGPASPPRVPPREPLSPQGSRTPSPLVPPGSSPLPPRLSSSPGKTMPTTQSFASDPKYATPQVIQAPGPRAGPCILPIVRDGKKVSSTHYYLLPERPSYLERYQRFLREAQSPEEPTPLPVPLLLPPPSTPAPAAPTATVRPMPQAALDPKANFSTNNSNPGARPPPPRATARLPQRGCPGDGPEAGRPADKIQMAMVHGVTTEECQAALQCHGWSVQRAAQYLKVEQLFGLGLRPRGECHKVLEMFDWNLEQAGCHLLGSWGPAHHKR	Ack1 directly phosphorylates histone H3 at Tyr99	Incubation of H4 peptide with WEE1 and Ack1 protein resulted in robust H4 Tyr88-phosphorylation	–
purified constitutively active E346K-Ack1 (protein) MQPEEGTGWLLELLSEVQLQQYFLRLRDDLNVTRLSHFEYVKNEDLEKIGMGRPGQRRLWEAVKRRKALCKRKSWMSKVFSGKRLEAEFPPHHSQSTFRKTSPAPGGPAGEGPLQSLTCLIGEKDLRLLEKLGDGSFGVVRRGEWDAPSGKTVSVAVKCLKPDVLSQPEAMDDFIREVNAMHSLDHRNLIRLYGVVLTPPMKMVTELAPLGSLLDRLRKHQGHFLLGTLSRYAVQVAEGMGYLESKRFIHRDLAARNLLLATRDLVKIGDFGLMRALPQNDDHYVMQEHRKVPFAWCAPESLKTRTFSHASDTWMFGVTLWEMFTYGQEPWIGLNGSQILHKIDKKGERLPRPEDCPQDIYNVMVQCWAHKPEDRPTFVALRDFLLEAQPTDMRALQDFEEPDKLHIQMNDVITVIEGRAENYWWRGQNTRTLCVGPFPRNVVTSVAGLSAQDISQPLQNSFIHTGHGDSDPRHCWGFPDRIDELYLGNPMDPPDLLSVELSTSRPPQHLGGVKKPTYDPVSEDQDPLSSDFKRLGLRKPGLPRGLWLAKPSARVPGTKASRGSGAEVTLIDFGEEPVVPALRPCAPSLAQLAMDACSLLDETPPQSPTRALPRPLHPTPVVDWDARPLPPPPAYDDVAQDEDDFEICSINSTLVGAGVPAGPSQGQTNYAFVPEQARPPPPLEDNLFLPPQGGGKPPSSAQTAEIFQALQQECMRQLQAPAGSPAPSPSPGGDDKPQVPPRVPIPPRPTRPHVQLSPAPPGEEETSQWPGPASPPRVPPREPLSPQGSRTPSPLVPPGSSPLPPRLSSSPGKTMPTTQSFASDPKYATPQVIQAPGPRAGPCILPIVRDGKKVSSTHYYLLPERPSYLERYQRFLREAQSPEEPTPLPVPLLLPPPSTPAPAAPTATVRPMPQAALDPKANFSTNNSNPGARPPPPRATARLPQRGCPGDGPEAGRPADKIQMAMVHGVTTEECQAALQCHGWSVQRAAQYLKVEQLFGLGLRPRGECHKVLEMFDWNLEQAGCHLLGSWGPAHHKR	–	–	When purified E346K-Ack1 and H4 were incubated, H4 was Tyr51-phosphorylated

Reference: US20150011567
